Tests used:
[1] = target: complement factor H (UniProt P08603 19-1231); assay: SPR
[2] = target: complement C8 (UniProt P07357 31-584; P07358 55-591; P07360 21-202); assay: SPR
complement C8, sequence (P07357 31-584, chain 1 of 3): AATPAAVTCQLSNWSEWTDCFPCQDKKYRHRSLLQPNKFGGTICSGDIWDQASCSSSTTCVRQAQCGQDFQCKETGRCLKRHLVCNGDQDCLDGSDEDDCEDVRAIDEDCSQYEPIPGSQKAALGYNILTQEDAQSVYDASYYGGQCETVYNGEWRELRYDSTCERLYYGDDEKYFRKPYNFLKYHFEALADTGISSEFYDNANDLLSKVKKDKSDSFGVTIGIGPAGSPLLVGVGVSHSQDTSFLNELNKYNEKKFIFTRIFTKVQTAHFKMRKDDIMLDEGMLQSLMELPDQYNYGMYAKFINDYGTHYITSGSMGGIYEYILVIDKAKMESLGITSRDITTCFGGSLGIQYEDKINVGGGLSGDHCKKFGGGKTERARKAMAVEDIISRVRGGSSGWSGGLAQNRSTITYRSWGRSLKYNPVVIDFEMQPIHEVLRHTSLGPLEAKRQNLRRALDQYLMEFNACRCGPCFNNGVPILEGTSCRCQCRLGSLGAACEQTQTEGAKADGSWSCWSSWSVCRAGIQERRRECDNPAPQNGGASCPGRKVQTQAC
complement C8, sequence (P07358 55-591, chain 2 of 3): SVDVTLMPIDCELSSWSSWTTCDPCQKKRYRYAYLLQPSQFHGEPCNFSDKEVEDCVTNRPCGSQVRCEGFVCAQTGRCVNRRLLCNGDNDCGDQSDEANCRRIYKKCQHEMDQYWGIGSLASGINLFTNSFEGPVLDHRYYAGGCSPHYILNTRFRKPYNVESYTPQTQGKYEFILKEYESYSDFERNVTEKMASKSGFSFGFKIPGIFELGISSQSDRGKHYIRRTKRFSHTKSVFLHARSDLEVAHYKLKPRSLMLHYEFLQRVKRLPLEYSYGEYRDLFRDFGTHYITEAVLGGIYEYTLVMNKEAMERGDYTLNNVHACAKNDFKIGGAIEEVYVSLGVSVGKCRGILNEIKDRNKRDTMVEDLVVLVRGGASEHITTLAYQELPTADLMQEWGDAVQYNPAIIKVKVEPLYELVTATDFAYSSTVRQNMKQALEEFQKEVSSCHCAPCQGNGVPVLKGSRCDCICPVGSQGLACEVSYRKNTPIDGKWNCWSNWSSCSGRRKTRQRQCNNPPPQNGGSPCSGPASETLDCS
complement C8, sequence (P07360 21-202, chain 3 of 3): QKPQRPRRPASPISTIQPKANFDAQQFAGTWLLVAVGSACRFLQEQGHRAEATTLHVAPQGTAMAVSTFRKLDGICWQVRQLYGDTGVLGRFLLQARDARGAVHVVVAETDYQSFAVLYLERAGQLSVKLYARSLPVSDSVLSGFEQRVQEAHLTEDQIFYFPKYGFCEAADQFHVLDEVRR

complement factor H, sequence (P08603 19-1231): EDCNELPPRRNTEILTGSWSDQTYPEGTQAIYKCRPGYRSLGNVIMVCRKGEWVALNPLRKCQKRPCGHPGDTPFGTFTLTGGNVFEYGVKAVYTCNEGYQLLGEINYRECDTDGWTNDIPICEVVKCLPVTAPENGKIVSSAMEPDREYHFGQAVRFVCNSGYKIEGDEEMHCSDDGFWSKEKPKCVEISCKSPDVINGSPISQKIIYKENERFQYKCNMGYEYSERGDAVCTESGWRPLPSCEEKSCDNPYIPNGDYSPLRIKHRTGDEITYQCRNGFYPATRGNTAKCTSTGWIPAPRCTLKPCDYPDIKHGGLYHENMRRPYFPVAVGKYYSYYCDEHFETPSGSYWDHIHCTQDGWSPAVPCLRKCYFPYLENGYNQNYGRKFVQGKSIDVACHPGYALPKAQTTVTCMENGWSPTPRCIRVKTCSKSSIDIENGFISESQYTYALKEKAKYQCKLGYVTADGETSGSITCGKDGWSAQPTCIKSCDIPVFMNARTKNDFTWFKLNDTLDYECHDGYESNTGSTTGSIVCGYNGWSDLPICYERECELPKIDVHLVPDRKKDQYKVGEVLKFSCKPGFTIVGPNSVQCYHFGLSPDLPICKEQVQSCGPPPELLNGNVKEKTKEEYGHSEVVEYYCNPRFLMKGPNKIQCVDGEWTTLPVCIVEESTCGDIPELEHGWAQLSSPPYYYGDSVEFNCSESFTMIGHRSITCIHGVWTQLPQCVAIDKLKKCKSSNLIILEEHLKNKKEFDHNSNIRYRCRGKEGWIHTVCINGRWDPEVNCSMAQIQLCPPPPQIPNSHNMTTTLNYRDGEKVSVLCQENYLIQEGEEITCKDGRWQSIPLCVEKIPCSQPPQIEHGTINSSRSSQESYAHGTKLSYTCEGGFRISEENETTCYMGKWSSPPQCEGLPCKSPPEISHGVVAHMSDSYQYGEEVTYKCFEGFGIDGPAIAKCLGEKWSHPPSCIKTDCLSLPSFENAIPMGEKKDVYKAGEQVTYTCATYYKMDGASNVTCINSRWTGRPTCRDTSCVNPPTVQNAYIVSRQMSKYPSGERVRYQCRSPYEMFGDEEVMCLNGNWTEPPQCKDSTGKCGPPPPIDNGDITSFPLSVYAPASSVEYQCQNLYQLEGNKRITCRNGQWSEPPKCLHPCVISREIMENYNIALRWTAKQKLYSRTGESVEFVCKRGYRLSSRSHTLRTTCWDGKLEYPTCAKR

Kd [1]: 203 nM
Kd [2]: 311 nM
B1: recombinant full-length thrombospondin-1 (natural protein)
chain: not shown

Reference: paper doi:10.1101/2024.07.31.606000 (bioRxiv, 2024)
